From patent publication US20250250330A1 (REVOPSIS THERAPEUTICS, published 2025)
Where “and” joins values, the source holds several entries; their conditions need not be identical. Equal entries are not always repeated.

How the values were obtained:
[1] = target: T1, Recombinant human VEGF165 (Peprotech, Cat #100-20) (human, UniProt P15692-4 27-191); experiment: ELISA; target coated at 1 ug/mL, anti-human IgG Fc-HRP detection
T1 construct: Bought protein; also called rhVEGF165; rh VEGF165
Procedure: (§1) First, the binding to rhVEGF-B was tested in comparison with rhVEGF₁₆₅. rhVEGF-B or rhVEGF₁₆₅ was used to coat Corning 9017 medium binding plates at 1 μg/mL and […] per well. […] Donkey anti-human IgG Fcγ-HRP was used for detection. OD450 nm readings were measured by Victor 3.

[2] = target: T2, rhVEGF-B_AcroBio (AcroBio_VE6-H5225) (human, UniProt P49765 22-207); experiment: as above
T2 construct: Bought protein; not shown: His tag
T2 sequence (looked up): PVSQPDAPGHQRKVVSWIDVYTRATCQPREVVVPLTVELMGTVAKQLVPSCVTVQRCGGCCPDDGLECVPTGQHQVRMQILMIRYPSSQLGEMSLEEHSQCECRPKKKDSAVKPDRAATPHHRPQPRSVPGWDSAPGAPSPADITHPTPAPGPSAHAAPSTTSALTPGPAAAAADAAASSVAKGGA
Procedure: as §1

[3] = target: T3, His-tagged recombinant human ANG-2 (AcroBiosystems, Cat #AN2-H52H4) (human, UniProt O15123 275-496); experiment: ELISA; rhANG-2 (AcroBiosystems) coated, anti-human IgG Fc-HRP detection
T3 construct: also called rhANG-2; rhANG-2-His; not shown: His tag
T3 sequence (looked up): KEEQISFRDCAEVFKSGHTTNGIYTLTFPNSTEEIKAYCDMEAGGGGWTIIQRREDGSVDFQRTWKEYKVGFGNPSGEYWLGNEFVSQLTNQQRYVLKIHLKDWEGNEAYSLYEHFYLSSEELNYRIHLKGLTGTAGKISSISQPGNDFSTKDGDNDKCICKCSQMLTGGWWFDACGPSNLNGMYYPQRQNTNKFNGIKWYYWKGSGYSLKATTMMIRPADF
Procedure: Donkey anti-human IgG Fcγ-HRP (Jackson ImmunoResearch Laboratories, Cat #709-035-098) was used for detection and visualized by TMB substrate. OD450 nm readings were measured by Victor 3 with PerkinElmer 1420 Multilabel Counter.

[4] = target: T4, Recombinant human ANG-2 (R&D Systems, Cat #623-AN-025/CF) (human, UniProt O15123 19-496, limits assumed); experiment: ELISA; rhANG-2 (R&D) coated, anti-human IgG Fc-HRP detection
T4 construct: also called rhANG-2
T4 sequence (looked up): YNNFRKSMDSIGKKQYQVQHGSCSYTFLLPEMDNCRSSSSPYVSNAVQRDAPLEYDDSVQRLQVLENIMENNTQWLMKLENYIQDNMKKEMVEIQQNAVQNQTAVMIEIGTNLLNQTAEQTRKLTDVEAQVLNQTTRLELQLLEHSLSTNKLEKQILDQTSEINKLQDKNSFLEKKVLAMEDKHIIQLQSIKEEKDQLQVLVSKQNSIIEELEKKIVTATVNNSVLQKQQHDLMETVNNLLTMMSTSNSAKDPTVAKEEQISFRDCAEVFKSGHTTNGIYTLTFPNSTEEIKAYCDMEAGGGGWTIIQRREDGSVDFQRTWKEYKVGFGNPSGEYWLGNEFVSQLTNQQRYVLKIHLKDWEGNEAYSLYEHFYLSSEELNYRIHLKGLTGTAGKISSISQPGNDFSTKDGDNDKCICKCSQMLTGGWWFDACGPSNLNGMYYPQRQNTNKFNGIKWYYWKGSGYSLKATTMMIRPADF
From the text: The binding was detected by HRP-conjugated donkey anti-human IgG Fcγ antibody (Jackson ImmunoResearch Laboratories, Cat #709-035-098).

[5] = target: T3, His-tagged recombinant human ANG-2 …; experiment: competition ELISA; IC50 ratio against Faricimab for inhibition of ANG-2-Tie-2 binding
[6] = target: T1, Recombinant human VEGF165 (Peprotech, …); experiment: ELISA on rhVEGF165; biotinylated anti-VpreB antibody and streptavidin-HRP detection
[7] = target: T5, rhVEGF-C (AcroBio_VEC-H4225) (human, UniProt P49767 103-227, limits assumed); experiment: ELISA: rhVEGF-C_AcroBio coated at 1 ug/mL, RO-101_Sample 1 titrated, detected with anti-human IgG Fc-gamma-HRP
T5 construct: domain: PDGF domain; Bought protein; not shown: His tag
T5 sequence (looked up): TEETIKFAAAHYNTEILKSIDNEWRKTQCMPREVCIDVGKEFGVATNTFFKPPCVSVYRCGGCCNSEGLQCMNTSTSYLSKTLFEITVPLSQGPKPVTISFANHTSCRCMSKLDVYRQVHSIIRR
Procedure: Different target proteins were used to coat Corning 9017 medium binding plates at 1 μg/mL and 100 μl per well. Donkey anti-human IgG Fcγ-HRP was used for detection. OD450 nm readings were measured by Victor 3.

[8] = target: T3, His-tagged recombinant human ANG-2 …; experiment: competition ELISA; His-tagged rhANG-2 in solution, competitor coated rhTie-2-Fc
[9] = target: T6, rdVEGF163 (canine/dog; R&D 1603-CV-010/CF) (Canine/Dog, UniProt Q9MYV3-3 27-190, limits assumed); experiment: ELISA on coated dog VEGF-A
T6 construct: Bought protein; also called Dog VEGF-A
T6 sequence (looked up): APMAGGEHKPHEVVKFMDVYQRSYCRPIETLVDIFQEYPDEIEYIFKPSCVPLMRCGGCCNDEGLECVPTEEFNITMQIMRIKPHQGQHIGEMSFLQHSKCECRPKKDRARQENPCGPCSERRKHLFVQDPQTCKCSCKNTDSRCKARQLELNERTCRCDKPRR

[10] = target: T1, Recombinant human VEGF165 (Peprotech, …); experiment: ELISA; target coated at 1 ug/mL, anti-human IgG Fc-HRP detection; remark: listed apart in the source
Procedure: Third, the binding to rhPIGF-1 or rhPIGF-3 was tested in comparison with rhVEGF₁₆₅. Target proteins were used to coat Corning 9017 medium binding plates at 1 μg/mL and 100 μl per well. […] Donkey anti-human IgG Fcγ-HRP was used for detection. OD450 nm readings were measured by Victor 3.

EC50 [1]: 0.0165 nM | EC50 [2]: > 100 nM | EC50 [3]: 0.0118 nM and 0.0138 nM | EC50 [4]: 0.0536 nM and 0.0498 nM and 0.0449 nM | Fold [5]: 17.2 fold | EC50 [6]: 5.7 pM | binding result [7]: no binding (tested: 100 nM (Log(nM) 2)) | IC50 [8]: 0.787 nM | EC50 [9]: 0.0237 nM | EC50 [10]: 0.0162 nM
B1: RO-101 VEGF/ANG-2 bispecific surrobody (bispecific antibody, human IgG1, L234A L235A)
heavy 1: not shown
heavy 2: EVQLVESGGGLVKPGGSLRLSCAASGFTFSSYGMHWVRQAPGKGLEWVAGISADSGDKNYADSVKGRFTISRDNAKNSLYLQMNSLRAEDTAVYYCAKEFISWIYTFDYLDYWGQGTLVTVSSASTKGPSVFPLAPSSKSTSGGTAALGCLVKDYFPEPVTVSWNSGALTSGVHTFPAVLQSSGLYSLSSVVTVPSSSLGTQTYICNVNHKPSNTKVDKKVEPKSCDKTHTCPPCPAPEAAGGPSVFLFPPKPKDTLMISRTPEVTCVVVDVSHEDPEVKFNWYVDGVEVHNAKTKPREEQYNSTYRVVSVLTVLHQDWLNGKEYKCKVSNKALPAPIEKTISKAKGQPREPQVCTLPPSRDELTKNQVSLSCAVKGFYPSDIAVEWESNGQPENNYKTTPPVLDSDGSFFLVSKLTVDKSRWQQGNVFSCSVMHEALHNHYTQKSLSLSPG
light: QPVLHQPPAMSSALGTTIRLTCTLRNDHDIGVYSVYWYQQRPGHPPRFLLRYFSQSDKSQGPQVPPRFSGSKDVARNRGYLSISELQPEDEAMYYCAMGARSSVTHVFGSGTQLTVLSQPKATPSVTLFPPSSEELQANKATLVCLMNDFYPGILTVTWKADGTPITQGVEMTTPSKQSNNKYAASSYLSLTPEQWRSRRSYSCQVMHEGSTVEKTVAPAECS
notes: Format SgG1; also called Sample 1
